Assay results from the supplement of paper PMC10899765.

Key:
Settings in all cases: 20 nM; 72 h
[1] = test system: MCF10A; test: percent viability (nuclei count relative to siNT); higher = more viable cells
Protocol: (§1)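 After 72 h, cells were fixed and stained with Hoechst and anti-fibrillarin, and nucleoli per nucleus were counted with CellProfiler. Values are plate-adjusted percent effect for the one-nucleolus and 5+ nucleoli phenotypes, normalised to siNT (0%) and to the positive controls siNOL11 or siKIF11 (100%), as the mean of biological triplicates. Percent viability is the nuclei count relative to siNT.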

[2] = test system: MCF10A; test: 5+ nucleoli phenotype percent effect (relative to siNT 0% and siKIF11 100%); higher = more cells with five or more nucleoli
Protocol: as §1

[3] = test system: MCF10A; test: one-nucleolus phenotype percent effect (relative to siNT 0% and siNOL11 100%); higher = more cells with one nucleolus (ribosome biogenesis inhibition)
Protocol: as §1

Row | Sequence | percent viability [1] [%] | 5+ nucleoli phenotype percent effect [2] [%] | one-nucleolus phenotype percent effect [3] [%]
1 | UGGGGAGGUGUGGAGUCAGCAU [hsa-miR-6825-5p] | 22.4 | 1.61 | 37.7
2 | UGGGGAUUUGGAGAAGUGGUGA [hsa-miR-4450] | 16.5 | 3.63 | 46.8
3 | UGGGGCGGAGCUUCCGGAG [hsa-miR-3180] | 25.6 | -11.7 | 10.4
4 | UGGGGCGGAGCUUCCGGAGGCC [hsa-miR-3180-3p] | 12.9 | 0.481 | 8
5 | UGGGGCGGGGCAGGUCCCUGC [hsa-miR-6816-5p] | 71.1 | 30.8 | -19
6 | UGGGGCUAGUGAUGCAGGACG [hsa-miR-4489] | 18.6 | -9.01 | 25.8
7 | UGGGGCUCAGCGAGUUU [hsa-miR-4283] | 17.3 | -10.7 | 24.3
8 | UGGGGGAGAUGGGGGUUGA [hsa-miR-6870-5p] | 32.7 | -6.86 | 15.2
9 | UGGGGGAGCCAUGAGAUAAGAGCA [hsa-miR-4723-5p] | 43.6 | 2.14 | 21.2
10 | UGGGGGAGGAAGGACAGGCCAU [hsa-miR-7111-5p] | 15.3 | -6.11 | 36.7
11 | UGGGGGAGUGCAGUGAUUGUGG [hsa-miR-5698] | 161 | 43.2 | -25.1
12 | UGGGGGCUGGAUGGGGUAGAGU [hsa-miR-6846-5p] | 23.9 | -0.876 | 7.84
13 | UGGGGGCUGGGAUGGGCCAUGGU [hsa-miR-6848-5p] | 22.5 | -4.7 | 7.99
14 | UGGGGGGACAGAUGGAGAGGACA [hsa-miR-6887-5p] | 22.6 | -8.17 | 22.8
15 | UGGGGGGACAGGAUGAGAGGCUGU [hsa-miR-6795-5p] | 16.8 | -6.99 | 28.6
16 | UGGGGGUGGUCUCUAGCCAAGG [hsa-miR-6842-5p] | 9.46 | -11.8 | -7.28
17 | UGGGGGUGUGGGGAGAGAGAG [hsa-miR-7110-5p] | 40.9 | -6.75 | 6.58
18 | UGGGGUAAGGAUAGGAGGGUCA [hsa-miR-6881-5p] | 24.8 | -3.46 | 4.74
19 | UGGGGUGCCCACUCCGCAAGUU [hsa-miR-4664-5p] | 9.8 | -17.8 | 23.6
20 | UGGGUAGAGAAGGAGCUCAGAGGA [hsa-miR-3132] | 21.4 | 62.9 | 1.88
21 | UGGGUCUUUGCGGGCGAGAUGA [hsa-miR-193a-5p] | 40.4 | -18.7 | 26.5
22 | UGGGUGGAAGAAGGUCUGGUU [hsa-miR-6745] | 6.73 | -9.03 | 17.1
23 | UGGGUGGUCUGGAGAUUUGUGC [hsa-miR-1293] | 7.23 | -9.27 | -46.3
24 | UGGGUGUAGGCUGGAGCUGAGG [hsa-miR-6772-5p] | 17 | -8.54 | 23.4
25 | UGGGUUCCUGGCAUGCUGAUUU [hsa-miR-23b-5p] | 59.2 | 1.4 | 2.38
26 | UGGGUUUACGUUGGGAGAACU [hsa-miR-629-5p] | 52.3 | -19.1 | 17.7
27 | UGGUAGACUAUGGAACGUAGG [hsa-miR-379-5p] | 31 | -21.8 | 12.4
28 | UGGUAGAGCUGAGGACA [hsa-miR-4451] | 16.3 | 9.42 | -7.47
29 | UGGUCAGAGGCAGCAGGAAAUGA [hsa-miR-6801-5p] | 54.5 | 27.3 | -5.6
30 | UGGUCGACCAGUUGGAAAGUAAU [hsa-miR-412-5p] | 46.8 | -1.85 | 13.6
